Two molecules from paper PMC2838725 (Biochemistry, 2010) can be followed below.

No end group written: not given here.

In test [1] the target is C-terminal domain of Stt3p (residues 466-718), N-terminal His6-tagged (Saccharomyces cerevisiae) (UniProt P39007). The test is described as follows: NMR titration.
Test [2] concerns the target T1, C-terminal domain of Stt3p (residues 466-718), N-terminal His6-tagged (Saccharomyces cerevisiae, UniProt P39007 466-718).
T1 sequence (looked up): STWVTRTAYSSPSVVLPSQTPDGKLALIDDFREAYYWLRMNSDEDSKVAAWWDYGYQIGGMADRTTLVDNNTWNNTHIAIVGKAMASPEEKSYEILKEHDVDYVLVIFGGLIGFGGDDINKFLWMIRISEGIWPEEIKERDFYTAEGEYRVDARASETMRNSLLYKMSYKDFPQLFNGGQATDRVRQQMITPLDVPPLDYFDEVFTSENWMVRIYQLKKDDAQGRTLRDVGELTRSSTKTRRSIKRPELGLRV
The test is described as follows: saturation transfer difference.

Consider substrate peptide Asn-Asp-Thr-NH2, for which, in test [1], the Kd came out at 9.97 mM.
With YNSTSC-NH2 [six-residue acceptor substrate peptide Tyr-Asn-Ser-Thr-Ser-Cys-Am], the binding result in test [2] is reported as “binds”.
